This is an account of results in paper PMC7067828, “FAM111A protects replication forks from protein obstacles via its trypsin-like domain”.

The term Kd denotes the equilibrium constant for the complex coming apart.

Series [1] addresses Strep-FAM111A (human, UniProt Q96PZ2 1-611). Description: fluorescence polarization; EMSA: 25 mM Tris-HCl pH 7.5, 5 mM MgCl2, 10% glycerol, 20 ng/ul BSA, 1 mM DTT, 0.7 pmol DNA in 10 ul, on ice 1 h; FP: 10 mM HEPES-NaOH pH 7.5, 150 mM NaCl, 10 nM DNA. The conditions noted are these: protein: recombinant; tags: N-terminal tandem Strep; label: 5' 6-FAM; single strand. (In fluorescence polarisation assays a small probe gives low polarisation when free and higher when bound to something large.)

Series [2] addresses T1, GST-FAM111A-strep (human, UniProt Q96PZ2 1-611). The series can be described thus: EMSA; 5 mM Mg2+; EMSA: 25 mM Tris-HCl pH 7.5, 5 mM MgCl2, 10% glycerol, 20 ng/ul BSA, 1 mM DTT, 0.7 pmol DNA in 10 ul, on ice 1 h; FP: 10 mM HEPES-NaOH pH 7.5, 150 mM NaCl, 10 nM DNA. Particulars: protein: recombinant, tags: N-terminal GST, C-terminal tandem Strep.
For series [3], the target named is MBP-FAM111A 1-282 (human, UniProt Q96PZ2 1-282). Described as above. Particulars: protein: recombinant; tags: N-terminal MBP; label: 5' IRDye700; single strand.
Chain of MBP-FAM111A 1-282 (Q96PZ2 1-282): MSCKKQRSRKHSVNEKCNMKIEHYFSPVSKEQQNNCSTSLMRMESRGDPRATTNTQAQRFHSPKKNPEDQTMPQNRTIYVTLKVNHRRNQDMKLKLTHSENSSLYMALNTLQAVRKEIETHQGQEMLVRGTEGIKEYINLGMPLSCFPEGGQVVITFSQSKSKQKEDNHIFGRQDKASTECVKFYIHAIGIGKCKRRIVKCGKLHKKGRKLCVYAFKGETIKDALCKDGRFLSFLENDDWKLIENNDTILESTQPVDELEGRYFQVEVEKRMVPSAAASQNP
Series [4] addresses MBP-FAM111A 176-282 (human, UniProt Q96PZ2 176-282). The series is described as above. Particulars: protein: recombinant; tags: N-terminal MBP; label: 5' IRDye700; single strand.
For series [5], the target named is T1, GST-FAM111A-strep. Description: EMSA; 5 mM Mg2+; up to 450 nM protein; EMSA: 25 mM Tris-HCl pH 7.5, 5 mM MgCl2, 10% glycerol, 20 ng/ul BSA, 1 mM DTT, 0.7 pmol DNA in 10 ul, on ice 1 h; FP: 10 mM HEPES-NaOH pH 7.5, 150 mM NaCl, 10 nM DNA. The conditions noted are these: protein: recombinant; tags: N-terminal GST, C-terminal tandem Strep; label: 5' IRDye700 on strand 1; fork 1:2 1:3 2:4; both arms double-stranded.

T1 sequence (Q96PZ2 whole entry): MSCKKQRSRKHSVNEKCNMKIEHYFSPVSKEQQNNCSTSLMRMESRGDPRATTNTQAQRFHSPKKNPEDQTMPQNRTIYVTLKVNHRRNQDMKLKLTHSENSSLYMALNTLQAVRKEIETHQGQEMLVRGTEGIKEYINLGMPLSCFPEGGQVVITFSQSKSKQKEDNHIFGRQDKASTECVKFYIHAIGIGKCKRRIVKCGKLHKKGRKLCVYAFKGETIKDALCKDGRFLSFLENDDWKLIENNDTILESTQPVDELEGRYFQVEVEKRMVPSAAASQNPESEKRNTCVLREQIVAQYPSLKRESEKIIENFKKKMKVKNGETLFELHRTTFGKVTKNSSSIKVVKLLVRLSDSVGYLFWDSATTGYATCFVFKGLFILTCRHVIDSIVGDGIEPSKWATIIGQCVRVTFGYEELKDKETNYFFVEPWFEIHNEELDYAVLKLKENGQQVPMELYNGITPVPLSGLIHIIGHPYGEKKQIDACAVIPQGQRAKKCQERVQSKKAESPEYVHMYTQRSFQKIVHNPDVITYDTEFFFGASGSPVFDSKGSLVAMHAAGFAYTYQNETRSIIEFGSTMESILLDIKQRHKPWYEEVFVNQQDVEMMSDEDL
Chain of Strep-FAM111A (Q96PZ2 whole entry): as above
Chain of MBP-FAM111A 176-282 (Q96PZ2 176-282): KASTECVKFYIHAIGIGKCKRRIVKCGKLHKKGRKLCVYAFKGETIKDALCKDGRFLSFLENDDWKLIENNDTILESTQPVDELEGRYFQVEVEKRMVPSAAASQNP

B1: 6-FAM-O1676 (31 nt) (ssDNA)
DNA: CGACGATGCTCCGGTACTCCAGTGTAGGCAT
For B1, the Kd in series [1] is ~60 nM.

B2: ssDNA O3063 (75 nt) (ssDNA)
DNA: GTTTTCCCAGTCACGACGATGCTCCGGTACTCCAGTGTAGGCATATTACGAATTCTTGAGGCAGGCATGGTAGCT
As for B2, the binding result in series [2] (label: 5' IRDye700, single strand) was “binds”; in series [3], “binds”; in series [4], “binds”.

B3: Y fork O3063/O4787 (mixed)
DNA 1: GTTTTCCCAGTCACGACGATGCTCCGGTACTCCAGTGTAGGCATATTACGAATTCTTGAGGCAGGCATGGTAGCT
DNA 2: AGCTACCATGCCTGCCTCAAGAATTCGTAATATGCCTACACTGGACCGTACTTCGCCTAGTAGACTGCCTTCCCG
On to B3, for which the binding result in series [2] (label: 5' IRDye700 on strand 1, fork 1:2, 45 bp duplex, two 30-nt ss arms) is “binds”.

B4: dsY fork O3063/O4787/O3730/O3757 (dsDNA)
DNA 1: GTTTTCCCAGTCACGACGATGCTCCGGTACTCCAGTGTAGGCATATTACGAATTCTTGAGGCAGGCATGGTAGCT
DNA 2: AGCTACCATGCCTGCCTCAAGAATTCGTAATATGCCTACACTGGACCGTACTTCGCCTAGTAGACTGCCTTCCCG
DNA 3: GTACCGGAGCATCGTCGTGACTGGGAAAAC
DNA 4: CGGGAAGGCAGTCTACTAGGCGAAGTACGG
Regarding B4, in series [5], the binding result was “no binding”.
